Data on 48 substances can be found in patent US20120225828A1.

Bridge positions count the residues as written; N and C are the ends. Square brackets hold non-standard residues; d marks the D form. dPhe(3-Cl) = N[C@H](Cc1cccc(Cl)c1)C(=O)O; dPhe(4-Cl) = N[C@H](Cc1ccc(Cl)cc1)C(=O)O; dPhe(4-Me) = Cc1ccc(C[C@@H](N)C(=O)O)cc1; dPhe(2-Cl) = N[C@H](Cc1ccccc1Cl)C(=O)O; dPhe(4-F) = N[C@H](Cc1ccc(F)cc1)C(=O)O; dPhe(2-F) = N[C@H](Cc1ccccc1F)C(=O)O; Nle = CCCC[C@H](N)C(=O)O; Orn = NCCC[C@H](N)C(=O)O; Dab = NCC[C@H](N)C(=O)O; Dap = NC[C@H](N)C(=O)O

The target in experiment [1] is recombinant human melanocortin-4 receptor hMCR-4 (human) (UniProt P32245). The experiment is described as follows: competition with [I125]-NDP-α-MSH; HEK-293 hMCR-4 membrane homogenates.
Experiment [2] addresses recombinant human melanocortin-1 receptor hMCR-1a (human) (UniProt Q01726). The experiment is described as follows: competition with [I125]-NDP-α-MSH; HEK-293 hMCR-1a membrane homogenates.

Chain of recombinant human melanocortin-1 receptor hMCR-1a (human) (Q01726 whole entry): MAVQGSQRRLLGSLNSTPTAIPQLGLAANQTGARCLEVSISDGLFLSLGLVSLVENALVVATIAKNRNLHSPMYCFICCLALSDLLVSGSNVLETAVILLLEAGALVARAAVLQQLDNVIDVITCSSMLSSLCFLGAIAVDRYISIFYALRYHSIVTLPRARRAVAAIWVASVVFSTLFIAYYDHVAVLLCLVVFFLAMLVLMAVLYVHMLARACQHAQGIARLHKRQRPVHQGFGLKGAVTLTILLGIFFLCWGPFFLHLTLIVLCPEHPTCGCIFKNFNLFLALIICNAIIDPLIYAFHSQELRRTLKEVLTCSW
Chain of recombinant human melanocortin-4 receptor hMCR-4 (human) (P32245 whole entry): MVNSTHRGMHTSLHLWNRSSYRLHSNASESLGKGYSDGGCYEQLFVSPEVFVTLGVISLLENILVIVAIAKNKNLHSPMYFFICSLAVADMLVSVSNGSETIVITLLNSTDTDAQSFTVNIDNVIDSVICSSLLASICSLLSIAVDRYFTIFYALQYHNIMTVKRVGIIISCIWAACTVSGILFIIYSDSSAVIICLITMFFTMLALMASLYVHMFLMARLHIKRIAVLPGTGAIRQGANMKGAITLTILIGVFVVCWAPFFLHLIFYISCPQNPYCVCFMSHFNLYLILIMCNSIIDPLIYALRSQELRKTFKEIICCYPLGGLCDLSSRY

Consider “Ac-Nle-cyclo(Glu-Arg-D-Phe-Arg-Dab)-Trp-NH2 (SEQ ID NO: 53) (peptide)”, for which the Ki in experiment [1] was determined as 20 nM.

As to “Ac-[Nle]EH[dF]A[Dab]-NH2 (lactam 2-6; SEQ ID NO: 48)”, the Ki in experiment [1] was 10000 nM; in experiment [2], 645 nM.

In the case of “Ac-Nle-cyclo(Glu-Lys-D-Phe-Arg-Dab)-Trp-NH2 (SEQ ID NO: 56) (peptide)”, the Ki in experiment [1] came to 95 nM.

Regarding “Ac-[Nle]E[Orn][dPhe(4-F)]R[Dab]-NH2 (lactam 2-6)”, the Ki in experiment [1] is 10000 nM; in experiment [2], 20 nM.

Take Ac-[Nle]EH[dF]R[Dab]-NH2 (lactam 2-6): the Ki in experiment [1] was determined as 10000 nM; in experiment [2], 7 nM.

On to “Ac-Nle-cyclo(Dab-His-D-Phe-Arg-Dap)-Trp-NH2 with bridge C(═O)-(CH2)2-C(═O) (peptide)”, for which the inhibition constant (Ki) in experiment [1] is 325 nM; in experiment [2] it was 0.025 nM.

In the case of “Ac-[Nle]E[Orn][dF]R[Dab]-NH2 (lactam 2-6)”, the Ki worked out at 3620 nM in experiment [1] and 4 nM in experiment [2].

Regarding Ac-[Nle]EH[dF]A[Dab]-NH2 (lactam 2-6), the Ki in experiment [1] is 10000 nM; in experiment [2] it was 645 nM.

As for “Ac-D-Phe-cyclo(Glu-His-D-Phe-Arg-Dab)-Trp-NH2 (peptide)”, the Ki in experiment [1] was found to be 535 nM.

As to “Ac-[Nle]E[Orn][dPhe(4-Me)]R[Dab]-NH2 (lactam 2-6)”, the Ki was found to be 10000 nM in experiment [1] and 3 nM in experiment [2].

With “Ac-Nle-cyclo(Dab-His-D-Phe-Arg-Dab)-Trp-NH2 with bridge C(═O)-(CH2)2-C(═O) (peptide)”, the Ki is 380 nM in experiment [1] and 0.015 nM in experiment [2].

For the substance “Ac-Nle-cyclo(Glu-His-D-Phe-Arg-Dap)-Trp-OH (peptide)”, the Ki in experiment [1] was 4700 nM; in experiment [2], 1 nM.

For the substance “Ac-[Nle]E[Orn][dPhe(4-Cl)]R[Dab]-NH2 (lactam 2-6)”, the Ki was 1240 nM in experiment [1] and 2 nM in experiment [2].

Consider “Ac-[Nle]E[Orn][dPhe(3-Cl)]R[Dab]-NH2 (lactam 2-6)”, for which the Ki in experiment [1] is 10000 nM; in experiment [2] it was 35 nM.

As to Ac-[Nle]EH[dF]G[Dab]W-NH2 (lactam 2-6), the Ki in experiment [1] stood at 10000 nM; in experiment [2], 9 nM.

Take “Ac-Nle-cyclo(Glu-His-D-Phe-Arg-Orn)-Trp-NH2 (peptide)”: the Ki in experiment [1] came to 295 nM.

With Ac-[Nle]EH[dF]R[Dab]A-NH2 (lactam 2-6), the Ki was 7480 nM in experiment [1] and 2 nM in experiment [2].

Turning to “Ac-Nle-cyclo(Glu-His-D-Phe-Arg-Dab)-Nal 1-NH2 (peptide)”, the Ki was 0.75 nM in experiment [1] and 0.005 nM in experiment [2].

In the case of “Ac-[Nle]E[Orn][dPhe(2-Cl)]R[Dab]-NH2 (lactam 2-6)”, the Ki was 10000 nM in experiment [1] and 30 nM in experiment [2].

In the case of “Ac-Nle-cyclo(Glu-His-D-Phe-Arg-Dab)-Trp-NH2 (peptide)”, the inhibitory constant (Ki) in experiment [1] came to 110 nM.

In the case of Ac-[Nle]EH[dF]R[Dab]K-NH2 (lactam 2-6), the Ki in experiment [1] was 7380 nM; in experiment [2], 2 nM.

“Ac-Nle-cyclo(Glu-Ala-D-Phe-Arg-Dab)-Trp-NH2 (SEQ ID NO: 52) (peptide)”: the inhibition constant Ki in experiment [1] came to 455 nM.

Take “Ac-Nle-cyclo(Dap-His-D-Phe-Arg-Dap)-Trp-NH2 with bridge C(═O)-(CH2)2-C(═O) (peptide)”: the Ki in experiment [1] amounted to 680 nM; in experiment [2], 0.03 nM.

On to “Ac-[Nle]E[Orn][dPhe(2-F)]R[Dab]-NH2 (lactam 2-6)”, for which the Ki in experiment [1] stood at 10000 nM; in experiment [2], 18 nM.

For the substance “Ac-Nle-cyclo(Glu-Arg-D-Phe-Arg-Dab)-Trp-NH2 (peptide)”, the Ki in experiment [1] worked out at 20 nM.

Consider “Ac-Nle-cyclo(Glu-Pro-D-Phe-Arg-Dab)-NH2 (peptide)”, for which the Ki in experiment [1] came to 10000 nM; in experiment [2], 2250 nM.

As for “Ac-Nle-cyclo(Glu-His-D-Phe-Arg-Dab)-Nal 2-NH2 (peptide)”, the Ki in experiment [1] worked out at 3 nM; in experiment [2], 0.01 nM.

Take “Ac-Nle-cyclo(Glu-Cit-D-Phe-Arg-Dab)-Trp-NH2 (SEQ ID NO: 54) (peptide)”: the results for the Ki in experiment [1] and in experiment [2] were 98 nM and 0.45 nM, respectively.

Consider Ac-[Nle]EH[dF][Dab]-NH2 (lactam 2-5), for which the Ki in experiment [1] and in experiment [2] was 10000 nM each time.

For the substance “Ac-Nle-cyclo(Glu-Orn-D-Phe-Arg-Dab)-Trp-NH2 (SEQ ID NO: 58) (peptide)”, the Ki worked out at 45 nM in experiment [1] and 0.015 nM in experiment [2].

Turning to “Ac-Nle-cyclo(Glu-Dab-D-Phe-Arg-Dab)-Trp-NH2 (SEQ ID NO: 57) (peptide)”, the inhibitory constant (Ki) came to 98 nM in experiment [1] and 0.05 nM in experiment [2].

Consider “Ac-Nle-cyclo(Glu-Orn-D-Phe(4-OMe)-Arg-Dab)-NH2 (peptide)”, for which the Ki in experiment [1] is 10000 nM; in experiment [2] it was 2 nM.

Take “Ac-Nle-cyclo(Glu-Lys-D-Phe-Arg-Dab)-Trp-NH2 (peptide)”: in experiment [1], the Ki stood at 95 nM.

As to “Ac-Nle-cyclo(Glu-Dab-D-Phe-Arg-Dab)-Trp-NH2 (peptide)”, the Ki in experiment [1] stood at 98 nM; in experiment [2] it was 0.05 nM.

For “Ac-Nle-cyclo(Glu-Cit-D-Phe-Arg-Dab)-Trp-NH2 (peptide)”, the Ki in experiment [1] was 98 nM; in experiment [2] it was 0.45 nM.

For the substance “Ac-Nle-cyclo(Glu-Ala-D-Phe-Arg-Dab)-Trp-NH2 (peptide)”, in experiment [1], the Ki stood at 455 nM.

As for “Ac-Nle-cyclo(Glu-His-D-Phe-Arg-Dab)-Nal 2-NH2 (SEQ ID NO: 14) (peptide)”, the Ki was determined as 0.095 nM in experiment [1] and 0.02 nM in experiment [2].

“Ac-[Nle]EH[dF]R[Dab]-NH2 (lactam 2-6; SEQ ID NO: 47)”: the values for the Ki in experiment [1] and in experiment [2] were 10000 nM and 7 nM, respectively.

“Ac-Nle-cyclo(Glu-Orn-D-Phe(3,4-F)-Arg-Dab)-NH2 (peptide)”: the figures for the inhibitory constant (Ki) in experiment [1] and in experiment [2] were 10000 nM and 40 nM, respectively.

In the case of “Ac-Nle-cyclo(Dap-His-D-Phe-Arg-Dab)-Trp-NH2 with bridge C(═O)-(CH2)2-C(═O) (peptide)”, the Ki stood at 860 nM in experiment [1] and 0.065 nM in experiment [2].

For the substance “Ac-Nle-cyclo(Glu-His-D-Phe-Arg-Dap)-Trp-NH2 (peptide)”, the Ki in experiment [1] came out at 358 nM.

On to “Ac-Nle-cyclo(Glu-Orn-D-Phe-Arg-Dab)-Trp-NH2 (peptide)”, for which the Ki worked out at 45 nM in experiment [1] and 0.015 nM in experiment [2].

For the substance Ac-[Nle]EH[dF]A[Dab]W-NH2 (lactam 2-6), the Ki in experiment [1] amounted to 10000 nM.

For the substance “Ac-Nle-cyclo(Glu-His-D-Phe-Arg-Dab)-D-Trp-NH2 (peptide)”, the Ki was determined as 33 nM in experiment [1] and 0.55 nM in experiment [2].

Take Ac-[Nle]EP[dF]R[Dab]W-NH2 (lactam 2-6): the figures for the Ki in experiment [1] and in experiment [2] were 185 nM and 3 nM, respectively.

For “Ac-Nle-cyclo(Glu-His-D-Phe-Arg-Dab)-D-Nal 1-NH2 (peptide)”, the results for the Ki in experiment [1] and in experiment [2] were 2 nM and 0.1 nM, respectively.

As for “Ac-Nle-cyclo(Glu-His-D-Phe-Arg-Dab)-Trp-OH (peptide)”, the figures for the Ki in experiment [1] and in experiment [2] were 10000 nM and 2 nM, respectively.

With Ac-[Nle]DH[dF]R[Dap]W-NH2 (lactam 2-6), the values for the Ki in experiment [1] and in experiment [2] were 1320 nM and 2 nM, respectively.

By Ki is commonly meant the equilibrium dissociation constant of an inhibitor or competing ligand from its target.
